These results are taken from PMC4312760.

Experiment [1] addresses Boxer virus (BV, GI.8) P domain, wild type, as P particle (Boxer virus (human norovirus GI.8)). Nature of the experiment: SEC; gel filtration on Superdex 200 followed by SDS-PAGE; P particles form a peak at 830 kDa.
In experiment [2] the target is Boxer virus (BV, GI.8) VP1 P domain, Q227-L526 (P dimer) (Boxer virus (human norovirus GI.8)). The experiment is described as follows: crystal structure; P protein at 10 mg/mL (native) or 14 mg/mL with Le^b or Le^y tetrasaccharide, hanging drop, 0.1 mol/L LiCl, 18% PEG 3350, 10% MPD, 16°C; space group P6_(1), two protomers in the asymmetric unit.

In the case of “Boxer virus (BV, GI.8) P domain, wild type, as P particle (domain or fragment)”, the efficiency of P particle formation in experiment [1] worked out at 80%.

For the substance “Boxer virus (BV, GI.8) VP1 P domain, Q227-L526 (P dimer) (domain or fragment)”, the stoichiometry N in experiment [2] came to 2.
